The RNAGym collection of RNA variant scans (doi:10.1073/pnas.2313332121)
Fewer inactive variants are shown than the library holds.

B1: TPR 5TU (parent)
chain: GGAUCUUCUCGAUCUAACAAAAAAGACAAAUCUGCCACAAAGCUUGAGAGCAUCUUCGGAUGCAGAGGCGGCAGCCUUCGGUGGCGCGAUAGCGCCAACGUUCUCAACUAUGACACGCAAAACGCGUGCUCCGUUGAAUGGAGUUUAUCAUG

Variants of: B1
Test: polymerase ribozyme fitness, log enrichment relative to wild type (log ratio); higher = more active; in vitro selection for triplet polymerase activity
Procedure, shortened: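 Frozen incubation at −7 °C formed the core of a single, triplicate in vitro selection round applied to PCR-built, transcribed mutant libraries of each subunit of a heterodimeric triplet polymerase ribozyme. Extended constructs were gel-excised, captured with streptavidin beads and amplified by RT-PCR, and input and output libraries were Illumina-sequenced with a filter of ≥10 input reads and ≥1 read per output. Fitness is the logarithm of genotype enrichment relative to wild-type enrichment, with inverse-variance-weighted replicate averaging, and the logarithm is base 2.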

| Variant | polymerase ribozyme fitness (log ratio) |
| --- | --- |
| GGAUCUACUCCAUCUAACAAAAAAGACAAAUCUGCCACAAAGCUUGAGAGCGUCUUCGGAUGCAGAGGCGGCAGCCUUCGGUGGCGCGCUGGCGUCAACGUUCUCAACUACGACACGCAAAACGCGUGCUUCGUUGAAUGGAGUUUAUCAUG [U7A G11C A52G A89C A91G C95U U111C C131U] | ≤ -4.2 |
| GGAUCUCCUCGUUCUAACAAAAAAGACAAAUCUGCCACAAAGCUUGAGAGCAUCUUCGGAUGCAGAGGCGGCAGCCUUCGGUGGCGCGAUAGCGCCAACGUUCUCAACUAUGACACGCAAAACGCGUGCUCCGUUGAAUGGAGUUUAUCAUG [U7C A12U] | -2.57 |
| GGAUCUCCUCGAUUUAACAAAAAAGACAAAUCUGCCACAAAGCUUGAGAGCAACUUCGGAUGCAGAGGCGGCAGCCUUCGGUGGCGCGAUAGCGCUAACGUUCCCAACUAUGACAAGCAAAACUCGUGCUCCGUGGAAUGGAGUUUAUCAUG [U7C C14U U53A C96U U104C C116A G124U U135G] | ≤ -4.2 |
| GGAUCUACUCGAUCUAACAAAAAAGACAAAUCUGCCACAAAGCUUGAGAGCAUCUUCGGAUGCUGAGGCGGCAACCUUAGGUGGAGCGAUAGCUCCAACGUUCUCAACUAUGACACGCAAAACGCGUGCGCCGUUGAAUGGAGUUUAUCAUG [U7A A64U G74A C79A C85A G94U U130G] | ≤ -4.2 |
| GGAUCUACUCGAUCUAACAAAAAAGACAAAUCUGCCACAAAGCUUGAGAGCAUCUUCGGAUCCAGAGGCGGCAGCCUUCGGUGGCGCGAUAGCGCCAACGUUCUCAACUAUGACACGCAAAACGCGUGCUCCGUUGAAUGGAGUUUAUCAUG [U7A G62C] | ≤ -4.2 |
| GGAUCUACUCGAUCUAACAAAAAAGACAAAUCUGCCACAAAGCUUGAGAGCAUCUUCGGAUGCAGAGGCGGCAGCCUUCGGUGGCGCGAUAGCGCUAACGUUCUCAACUAUGACACGCAAAACGCGUGCUCCGUUGAAUGGAGUUUAUCAUG [U7A C96U] | -2.73 |
| GGAUCUACUCGAUCUAACAAAAAAGACAAAUCUGCCACAAAGCUUGAGAGUAUCUUCGGAUGCAGAGGCGGCAGCCUUCGGUGGCGCGAUAGCGCCAACGUUCUCAACUAUGACACGCAAAACGCGUGCUCCGUUGAAUGGAGUUUAUCAUG [U7A C51U] | -3.25 |
| GGAUCUACUCGAUCUAACAAAAAAGACAAAUCUGCCAUAAAGCUUGAGAGCAUCUUCGGAUGCAAAGGCGGCAGCCUUCGGUGGCGCGAUAGCGCCAACGUUCUCAGCUAUGACACGCAAAACGCGUGCUCCGUUUAAUGGAGUUCAUCAUG [U7A C38U G65A A107G G136U U146C] | ≤ -4.2 |
| GGAUCUACUCGAUCUAACAAAAAAGACAAAUCUGCCGCAAAGCUUGCGAGCAUCUUCGCAUGCAGAGGCGGUAGCCUUCGGUGCCGCAAUAGCGCCAACGUUCUCAAAUAUGACACGCAAAACGCGUGCUCCGUUGAAUGCAGUUUAUCAUG [U7A A37G A47C G59C C72U G84C G88A C108A G141C] | ≤ -4.2 |
| GGAUCUACUCGAUCUAACAAAAAAGACAAAUCUGCCACAAAGCUUGAGAGCAUCUUCGGAUGCAGAGGCGGCAGCCUUCGGUGGCGUGAUAGCGCAAACGUUCUCAACUAUGACACGCAAAACGCGUGCUCCGUUGAAUGGAGUUUAUCUUG [U7A C87U C96A A150U] | -3.72 |
| GGAUCUACUCGAUCUAACAAAAAAGACAAAUCUGACACUAAGCUUGAGAACAUCUUCGGAUGCAGAGGCGGCAGCCUUCGGUGGCGCGAUAUCGACAACGUUCUCAACUAUGACACGCAAAACGCGUGCACCGUAGAAUGGAGUUUAUCAUG [U7A C35A A39U G50A G92U C95A U130A U135A] | ≤ -4.2 |
| GGAUCUACUCGAUCUAACAAAAAAGACAAAUCUGCCACAAAGCUUGAGAGCAUCUUCGGAUGUAGAGGCGGCGGCCUUCGGUGGCGCGAUAGCGCCAACGUUCUCAACUAUGACACGCAGAACGCGUGCUCCGUUGAAUGGAGUUAAUCAUG [U7A C63U A73G A120G U146A] | ≤ -4.2 |
| GGAUCUACUCGAUCUAACAAAAAAGACAAAUCUGCCACACAGCUUGAGAGCAUAUUCGCAUGCAGAGGCGGCAGCCUUCGGUGGCGUGAUAGCGCCAACGUUCUCAACUAUGACACGCAAAACGCGUGCUCCGUUGAAUGGAGUUUAUCAUG [U7A A40C C54A G59C C87U] | ≤ -4.2 |
| GGAUCUCCUCGAUCUAACAAAAAAGACAAAUCUGCCACAAAGCUUGAGAGCAUCUUCGGAUGCAGAGGCGGCAGCCUUCGGUGGCGCGAUAGCGCCAACGUUCUCAACUAUGGCACGCAAAACGCGUGCUCCGUUGAACGGAGUUUAUCAUG [U7C A113G U139C] | ≤ -4.2 |
| GGAUCUACUCGAUCUAACAAAAAAGACAAAUCUGCCACAAAUCUUGAGAGCAUCUUCGGAUGCAGAGGCGGCAGCGUUCGGUGGCGCGAUAGCGCGAAAGUUCUCAACUAUGACACGCAAAACGCGUGCUCCGUUGAAUGGAGAUUAUGAUG [U7A G42U C76G C96G C99A U144A C149G] | ≤ -4.2 |
| GGAUCUACUCGAUCUAACAAAAAAGACAAAUCUGCCACAAAGCUUGAGAGCAUAUUCCGAUGCAGAGGCGGCAGCCUUCGGUGGCGCGAUACCGCCAACGUUCUCAUCUAUGACAAGCAAAACGCGUGCUCCGUUGAAUGGAGUUUAUCAUG [U7A C54A G58C G92C A107U C116A] | ≤ -4.2 |
| GGAUCUACUCUAUCUAACAAAAAAGACAAAUCUGCCACAAAGCUUGAGAACAUCUUCGGAUGCGGAGACGGUAGCCUUCGGUGGCGUGAUAGCGCCAACGUUCUCAACUAUGACUCGCAAAGCGCGUGCUCCGUUGAAUGGAGUUUAUAAAG [U7A G11U G50A A64G G68A C72U C87U A115U A122G C149A U151A] | ≤ -4.2 |
| GGAUCUACUCGAUCUAACAAAAAAGACAAAUCUGCCACAAAGCUUGAGAGCAUCUUCGGAUGCAGAGGCGGGAGCCUUCCGUGGCGCGAUAGCGCUAACGUUCCCAACUAUGACACGCAAAGCGCGUGCUCCGUUGAAUGGAGUUAAUCAUG [U7A C72G G80C C96U U104C A122G U146A] | ≤ -4.2 |
| GGAUCUACUCAAUCUAACAAAAAAGACAAAUUUGGCACAAUGCUUGAGAGCAUCAUCGGAUGCAGAGGCGGCAGCCUUCGGUGGCGGGAUAGCGACAACGUUCUCAACUAUGAUACGCAAAACGCGUGCUCCGUUGAAUGGAGUUUAUCAUG [U7A G11A C32U C35G A41U U55A C87G C95A C114U] | ≤ -4.2 |
